Laboratory results: patent publication US20230094162A1 (MacroGenics, published 2023)
Residue numbers refer to the chain shown, from its start. Names and notes keep the numbering of the source. Where two headings read alike, the source gives them in different places. Blank lines part the entries; values can stand above or below the binder they belong to.

How the values were obtained:
[1] = target: T1, CD137 expressed on the cell surface (CHO/CD137 cells) (UniProt Q07011 24-255, limits assumed); experiment: flow cytometry (FACS) on CHO cells expressing CD137, MFI
T1 construct: whole, on cells; also called cell surface CD137; Jurkat-NF-κB-Luc reporter cells overexpressing CD137

[2] = target: T2, PD-L1 expressed on the cell surface (CHO/PD-L1 cells) (UniProt Q9NZQ7 19-290); experiment: cell-based or functional assay
[3] = target: T2, PD-L1 expressed on the cell surface …; experiment: cell-based or functional assay; remark: listed apart in the source
[4] = target: T2, PD-L1 expressed on the cell surface …; experiment: cell-based or functional assay; remark: listed apart in the source
[5] = target: T2, PD-L1 expressed on the cell surface …; experiment: flow cytometry (FACS) on JIMT-1 cells (PD-L1 positive), MFI
[6] = target: T2, PD-L1 expressed on the cell surface …; experiment: flow cytometry (FACS) on CHO cells expressing PD-L1, MFI
Method: (§1) FACS analysis to evaluate the test articles for binding to cell surface PD-L1 was performed essentially as follows: 100 μL of CHO cells expressing PD-L1 (CHO/PD-L1) (1.0×10⁵ to 1.0×10⁶ cells/well) and 100 μL of serially diluted test article was added to each well of microtiter assay plate(s), mixed and incubated at RT for about 30 min. The cells were washed with FACS Buffer and secondary antibody (goat anti-human-FITC, PE, or APC) was then added to each well, after which, the components were mixed and the wells were incubated at RT for about 30 min. Cells were washed and resuspended in 250 μL FACS Buffer and analyzed by flow cytometry (BD LSR Fortessa or FACSCanto II) for cell events collection. Data analysis were performed via FloJo v10.
Test articles were used at 10 μg/mL and five-fold serial dilutions for the FACS analysis and at 50 μg/mL and five-fold serial dilutions for the PD-L1 reporter assay.

[7] = target: T3, soluble PD-L1 fused to a His tag (shPD-L1) (UniProt Q9NZQ7 19-238, limits assumed); experiment: ELISA on plate-coated shPD-L1
T3 construct: the species of shPD-L1 is not written out; also called shPD-L1-his; not shown: His tag
Method: For the hybridoma supernatants anti-CD137 antibody was utilized at 1.0 μg/mL and six three-fold serial dilutions. The amount of test article binding to the immobilized CD137 (human or cynomolgus monkey) was assessed using a goat anti-mouse IgG-HRP secondary antibody. All samples were analyzed on a plate reader (Victor 2 Wallac, Perkin Elmer) and EC50 values were calculated from dose-response curves by nonlinear regression analysis.
The binding of antibodies comprising these substitutions were evaluated for binding to a soluble PD-L1- fused to a His tag (shPD-L1) using an ELISA assay essentially as described above for CD137 binding except the plates were coated with shPD-L1 at 0.5 μg/mL and a goat anti-human IgG-HRP secondary antibody was used.

[8] = target: T2, PD-L1 expressed on the cell surface …; experiment: flow cytometry (FACS) on CHO cells expressing PD-L1, MFI; remark: listed apart in the source
Method: as §1

[9] = target: T2, PD-L1 expressed on the cell surface …; experiment: cell-based or functional assay; remark: listed apart in the source
[10] = target: T2, PD-L1 expressed on the cell surface …; experiment: cell-based or functional assay; remark: listed apart in the source
[11] = target: T1, CD137 expressed on the cell surface …; experiment: flow cytometry (FACS) on CHO cells expressing CD137, MFI; remark: listed apart in the source
[12] = target: T1, CD137 expressed on the cell surface …; experiment: as above; remark: listed apart in the source
Method: FACS analysis to evaluate the test articles for binding to cell surface CD137 was performed essentially as follows: 100 μL of CHO cells expressing CD137 (CHO/CD137) (1.0×10⁵ to 1×10⁶ cells/well) and 100 μL of serially diluted test article or control was added to each well of microtiter assay plate(s), mixed and incubated at RT for about 30 min. The cells were washed with FACS Buffer and secondary antibody (goat anti-human-APC, PE, or FITC) was then added to each well (1:1000), after which, the components were mixed and the wells were incubated at RT for about 30 min. Cells were washed and resuspended in 250 μL FACS Buffer and analyzed by flow cytometry (BD LSR Fortessa or FACSCanto II) for cell events collection. Data analysis were performed via FloJo v10.

T2 sequence (Q9NZQ7 19-290): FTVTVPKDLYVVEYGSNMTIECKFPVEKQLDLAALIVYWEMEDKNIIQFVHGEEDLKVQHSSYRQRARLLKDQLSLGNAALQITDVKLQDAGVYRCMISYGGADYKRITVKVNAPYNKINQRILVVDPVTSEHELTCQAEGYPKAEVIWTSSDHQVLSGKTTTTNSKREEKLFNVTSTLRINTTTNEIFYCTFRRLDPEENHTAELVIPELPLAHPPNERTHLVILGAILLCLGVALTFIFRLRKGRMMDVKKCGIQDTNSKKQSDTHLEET
T3 sequence (Q9NZQ7 19-238 limits assumed): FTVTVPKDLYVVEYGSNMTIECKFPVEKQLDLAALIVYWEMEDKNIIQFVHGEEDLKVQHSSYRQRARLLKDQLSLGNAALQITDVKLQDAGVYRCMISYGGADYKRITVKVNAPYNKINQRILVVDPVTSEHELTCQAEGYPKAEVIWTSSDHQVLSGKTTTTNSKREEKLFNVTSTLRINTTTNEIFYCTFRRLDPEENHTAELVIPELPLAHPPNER
T1 sequence (Q07011 24-255 limits assumed): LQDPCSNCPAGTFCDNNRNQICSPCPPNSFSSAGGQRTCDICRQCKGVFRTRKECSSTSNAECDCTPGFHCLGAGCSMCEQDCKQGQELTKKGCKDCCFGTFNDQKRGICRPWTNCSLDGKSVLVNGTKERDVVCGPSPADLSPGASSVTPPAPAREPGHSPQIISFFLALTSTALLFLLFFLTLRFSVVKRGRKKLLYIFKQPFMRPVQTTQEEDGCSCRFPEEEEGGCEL

- EC50 (read off the curve) [1]: ~0.01 µg/mL
- EC50 (read off the curve) [2]: ~0.5 µg/mL
B2: TRIDENT-A6 (bispecific antibody, human IgG1, kappa, L234A L235A)
chain 1: EIVMTQSPATLSLSPGERATLSCRASQSVSSNYLSWFQQKPGQAPRLLIYGASTRATGIPARFSGSGSGTDFTLTISSLQPEDFAVYYCQQDYDLPWTFGQGTKVEIKGGGSGGGGQVQLQESGPGLVKPSETLSLTCTVSGGSISSYYWSWIRQPPGKGLEWIGRIYTSGSTNYNPSLKSRVTMSVDTSKNQFSLKLSSVTAADTAVYYCARDGWYDEDYNYYGMDVWGQGTTVTVSSGGCGGGEVAALEKEVAALEKEVAALEKEVAALEKGGGDKTHTCPPCPAPEAAGGPSVFLFPPKPKDTLYITREPEVTCVVVDVSHEDPEVKFNWYVDGVEVHNAKTKPREEQYNSTYRVVSVLTVLHQDWLNGKEYKCKVSNKALPAPIEKTISKAKGQPREPQVYTLPPSREEMTKNQVSLWCLVKGFYPSDIAVEWESNGQPENNYKTTPPVLDSDGSFFLYSKLTVDKSRWQQGNVFSCSVMHEALHNHYTQKSLSLSPGK
chain 2: EIVMTQSPATLSLSPGERATLSCRASQSVSSNYLSWFQQKPGQAPRLLIYGASTRATGIPARFSGSGSGTDFTLTISSLQPEDFAVYYCQQDYDLPWTFGQGTKVEIKGGGSGGGGQVQLQESGPGLVKPSETLSLTCTVSGGSISSYYWSWIRQPPGKGLEWIGRIYTSGSTNYNPSLKSRVTMSVDTSKNQFSLKLSSVTAADTAVYYCARDGWYDEDYNYYGMDVWGQGTTVTVSSGGCGGGKVAALKEKVAALKEKVAALKEKVAALKE
heavy: EVQLVESGGGLVQPGGSLRLSCAASGFTFSSYTMSWVRQAPGKGLEWVAYISIKGGTTYYPDTVKGRFTISRDNAKNSLYLQMNSLRAEDTAVYYCARQGLPYYGDYWGQGTLVTVSSASTKGPSVFPLAPSSKSTSGGTAALGCLVKDYFPEPVTVSWNSGALTSGVHTFPAVLQSSGLYSLSSVVTVPSSSLGTQTYICNVNHKPSNTKVDKRVEPKSCDKTHTCPPCPAPEAAGGPSVFLFPPKPKDTLYITREPEVTCVVVDVSHEDPEVKFNWYVDGVEVHNAKTKPREEQYNSTYRVVSVLTVLHQDWLNGKEYKCKVSNKALPAPIEKTISKAKGQPREPQVYTLPPSREEMTKNQVSLSCAVKGFYPSDIAVEWESNGQPENNYKTTPPVLDSDGSFFLVSKLTVDKSRWQQGNVFSCSVMHEALHNRYTQKSLSLSPGK
light: DIQMTQSPSSLSASVGDRVTITCKASQDVNEAVAWYQQKPGKAPKLLIYWASTRHTGVPSRFSGSGSGTDFTLTISSLQPEDFATYYCQQHYNTPLTFGQGTKVEIKRTVAAPSVFIFPPSDEQLKSGTASVVCLLNNFYPREAKVQWKVDNALQSGNSQESVTEQDSKDSTYSLSSTLTLSKADYEKHKVYACEVTHQGLSSPVTKSFNRGEC
notes: Trivalent; two CD137 MAB-6(1.3) sites, one hPD-L1 MAB-2(3.2) site

- binding result [7]: binds
B5: hPD-1 MAB-2 VH1 + T77S (antibody, V domains shown)
VH: EVQLVESGGGLVQPGGSLRLSCAASGFTFSSYTMSWVRQAPGKGLEWVAYISIGGGTTYYPDTVKGRFTISRDNAKNSLYLQMNSLKTEDTAVYYCARQGLPYYFDYWGQGTLVTVSS
VL: DIQMTQSPSSLSASVGDRVTITCKASQDVNTAVAWYQQKPGKAPKLLIYWASTRHTGVPSRFSGSGSGTDFTLTISSLQPEDFATYYCQQHYNTPLTFGQGTKVEIK
notes: Deimmunization variant of hPD-L1 MAB-2(1.1)

- binding result [7]: binds
B6: hPD-1 MAB-2 VH1 + K83R and T84A (antibody, V domains shown)
VH: B5 VH with S78T, K87R, T88A
VL: B5 VL
notes: as for B5

Second part, the binder before the results:

B1: TRIDENT-A5 (bispecific antibody, human IgG1, kappa, L234A L235A)
chain 1: B2 chain 1 with F37Y
chain 2: B2 chain 2 with F37Y
heavy: B2 heavy
light: B2 light
notes: Trivalent; two CD137 MAB-6(1.2) sites, one hPD-L1 MAB-2(3.2) site
- EC50 (read off the curve) [1]: ~0.03 µg/mL

B3: hPD-L1 MAB-2(1.1) (antibody, V domains shown)
VH: B5 VH with S78T
VL: B5 VL
notes: Humanized anti-PD-L1 antibody; also called hPD-1 MAB-2(1.1); hPD-1 MAB-2 VH1
- EC50 (read off the curve) [3]: ~0.04 µg/mL
- EC50 (read off the curve) [4]: ~0.07 µg/mL
- EC50 (read off the curve) [5]: ~0.005 µg/mL
- EC50 (read off the curve) [6]: ~0.03 µg/mL

B4: hPD-1 MAB-2 VH1 + T77S, K83R and T84A (antibody, V domains shown)
VH: B5 VH with K87R, T88A
VL: B5 VL
notes: also called hPD-L1 MAB-2 VH2; hPD-L1 MAB-2(2.1)
- binding result [7]: binds

B7: hPD-L1 MAB-2F (antibody) (antibody, V domains shown)
VH: B5 VH with G54K, S78T, F105G
VL: B5 VL with T31E
- EC50 (read off the curve) [2]: ~0.2 µg/mL
- EC50 (read off the curve) [8]: ~0.01 µg/mL
- EC50 (read off the curve) [9]: ~0.2 µg/mL

B8: DART-A4 (bispecific antibody)
chain 1: DIQMTQSPSSLSASVGDRVTITCKASQDVNEAVAWYQQKPGKAPKLLIYWASTRHTGVPSRFSGSGSGTDFTLTISSLQPEDFATYYCQQHYNTPLTFGQGTKVEIKGGGSGGGGQVQLQESGPGLVKPSETLSLTCTVSGGSISSYYWSWIRQPPGKGLEWIGRIYTSGSTNYNPSLKSRVTMSVDTSKNQFSLKLSSVTAADTAVYYCARDGWYDEDYNYYGMDVWGQGTTVTVSSGGCGGGEVAACEKEVAALEKEVAALEKEVAALEKLEPKSADKTHTCPPCPAPEAAGGPSVFLFPPKPKDTLYITREPEVTCVVVDVSHEDPEVKFNWYVDGVEVHNAKTKPREEQYNSTYRVVSVLTVLHQDWLNGKEYKCKVSNKALPAPIEKTISKAKGQPREPQVYTLPPSREEMTKNQVSLTCLVKGFYPSDIAVEWESNGQPENNYKTTPPVLDSDGSFFLYSKLTVDKSRWQQGNVFSCSVMHEALHNHYTQKSLSLSPGK
chain 2: EIVMTQSPATLSLTPGERATLSCRASQSVSSNYLSWFQQIPGQAPRLLIYGASTRATGIPARFSGSGSGTDFTLTISSLQPEDFAVYYCQQDYDLPWTFGQGTKVEIKGGGSGGGGEVQLVESGGGLVQPGGSLRLSCAASGFTFSSYTMSWVRQAPGKGLEWVAYISIKGGTTYYPDTVKGRFTISRDNAKNSLYLQMNSLRAEDTAVYYCARQGLPYYGDYWGQGTLVTVSSGGCGGGKVAACKEKVAALKEKVAALKEKVAALKE
notes: Tetravalent; CD137 MAB-6(1.1) and hPD-L1 MAB-2(3.2)
- EC50 (read off the curve) [4]: ~0.08 µg/mL
- EC50 (read off the curve) [5]: ~0.004 µg/mL
- EC50 (read off the curve) [10]: ~0.1 µg/mL
- EC50 (read off the curve) [11]: ~0.02 µg/mL
- EC50 (read off the curve) [12]: ~0.04 µg/mL
- EC50 (read off the curve) [9]: ~0.2 µg/mL

B9: DART-A6 (bispecific antibody)
chain 1: B8 chain 1
chain 2: B8 chain 2 with T14S, I40K
notes: Tetravalent; CD137 MAB-6(1.3) and hPD-L1 MAB-2(3.2)
- EC50 (read off the curve) [11]: ~0.02 µg/mL
- EC50 (read off the curve) [12]: ~0.05 µg/mL
- EC50 (read off the curve) [9]: ~0.2 µg/mL
